According to US20210087288A1:
pKd: −log10 of the molar value.

How the values were obtained:
[1] = target: Cynomolgus monkey FcRn (cynomolgus monkey) (UniProt Q8SPV9); assay: SPR (BIAcore T200), antibody captured via anti-Fab, FcRn injected, pH 6, steady state
Human FcRn (human) = Human FcRn (human) (UniProt P55899); assay: as above
Chain of Human FcRn (human) (P55899 24-297 limits assumed): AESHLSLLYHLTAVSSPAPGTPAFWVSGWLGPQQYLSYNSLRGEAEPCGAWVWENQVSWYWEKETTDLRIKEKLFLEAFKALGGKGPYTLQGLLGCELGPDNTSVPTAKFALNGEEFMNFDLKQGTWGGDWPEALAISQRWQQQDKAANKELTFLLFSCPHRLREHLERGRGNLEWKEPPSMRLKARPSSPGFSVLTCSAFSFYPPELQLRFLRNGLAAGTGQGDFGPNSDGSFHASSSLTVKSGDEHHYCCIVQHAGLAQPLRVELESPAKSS

Chain of Cynomolgus monkey FcRn (cynomolgus monkey) (Q8SPV9 24-297 limits assumed): as the sequence (P55899 24-297 limits assumed) above, with N39D, E44Q, G99S, S189G, S190N, L217M, S269T counted along it

pKd [1]: 6.05
pKd (Human FcRn (human)): 6.15
Substance: Anti-gD.hIgG1 (antibody)
